Data: paper PMC10258763, “Atomic model for core modifying region of human fatty acid synthase in complex with Denifanstat” (Nature Communications, 2023)

Biological target: the molecule itself
Experiment: SEC + other: cryo-EM 2D class averages; truncated modifying region purified by Ni-NTA and Superdex 200 increase 10/300; 2D classes of elution fraction 3

B1: isolated modifying region of hFASN expressed and purified as an independent construct (G855 to G2511) (domain or fragment, human, UniProt P49327 855-2511, looked up)
chain: GSPSAAIYNIDTSSESPDHYLVDHTLDGRVLFPATGYLSIVWKTLARALGLGVEQLPVVFEDVVLHQATILPKTGTVSLEVRLLEASRAFEVSENGNLVVSGKVYQWDDPDPRLFDHPESPTPNPTEPLFLAQAEVYKELRLRGYDYGPHFQGILEASLEGDSGRLLWKDNWVSFMDTMLQMSILGSAKHGLYLPTRVTAIHIDPATHRQKLYTLQDKAQVADVVVSRWLRVTVAGGVHISGLHTESAPRRQQEQQVPILEKFCFTPHTEEGCLSERAALQEELQLCKGLVQALQTKVTQQGLKMVVPGLDGAQIPRDPSQQELPRLLSAACRLQLNGNLQLELAQVLAQERPKLPEDPLLSGLLDSPALKACLDTAVENMPSLKMKVVEVLAGHGHLYSRIPGLLSPHPLLQLSYTATDRHPQALEAAQAELQQHDVAQGQWDPADPAPSALGSADLLVCNCAVAALGDPASALSNMVAALREGGFLLLHTLLRGHPLGDIVAFLTSTEPQYGQGILSQDAWESLFSRVSLRLVGLKKSFYGSTLFLCRRPTPQDSPIFLPVDDTSFRWVESLKGILADEDSSRPVWLKAINCATSGVVGLVNCLRREPGGNRLRCVLLSNLSSTSHVPEVDPGSAELQKVLQGDLVMNVYRDGAWGAFRHFLLEEDKPEEPTAHAFVSTLTRGDLSSIRWVCSSLRHAQPTCPGAQLCTVYYASLNFRDIMLATGKLSPDAIPGKWTSQDSLLGMEFSGRDASGKRVMGLVPAKGLATSVLLSPDFLWDVPSNWTLEEAASVPVVYSTAYYALVVRGRVRPGETLLIHSGSGGVGQAAIAIALSLGCRVFTTVGSAEKRAYLQARFPQLDSTSFANSRDTSFEQHVLWHTGGKGVDLVLNSLAEEKLQASVRCLATHGRFLEIGKFDLSQNHPLGMAIFLKNVTFHGVLLDAFFNESSADWREVWALVQAGIRDGVVRPLKCTVFHGAQVEDAFRYMAQGKHIGKVVVQVLAEEPEAVLKGAKPKLMSAISKTFCPAHKSYIIAGGLGGFGLELAQWLIQRGVQKLVLTSRSGIRTGYQAKQVRRWRRQGVQVQVSTSNISSLEGARGLIAEAAQLGPVGGVFNLAVVLRDGLLENQTPEFFQDVCKPKYSGTLNLDRVTREACPELDYFVVFSSVSCGRGNAGQSNYGFANSAMERICEKRRHEGLPGLAVQWGAIGDVGILVETMSTNDTIVSGTLPQRMASCLEVLDLFLNQPHMVLSSFVLAEKAAAYRDRDSQRDLVEAVAHILGIRDLAAVNLDSSLADLGLDSLMSVEVRQTLERELNLVLSVREVRQLTLRKLQELSSKADEASELACPTPKEDGLAQQQTQLNLRSLLVNPEGPTLMRLNSVQSSERPLFLVHPIEGSTTVFHSLASRLSIPTYGLQCTRAAPLDSIHSLAAYYIDCIRQVQPEGPYRVAGYSYGACVAFEMCSQLQAQQSPAPTHNSLFLFDGSPTYVLAYTQSYRAKLTPGCEAEAETEAICFFVQQFTDMEHNRVLEALLPLKGLEERVAAAVDLIIKSHQGLDRQELSFAARSFYYKLRAAEQYTPKAKYHGNVMLLRAKTGGAYGEDLGADYNLSQVCDGKVSVHVIEGDHRTLLEGSGLESIISIIHSSLAEPRVSVREG
notes: human fatty acid synthase (FASN), residues G855 to G2511, modifying region (DH, ΨME, ΨKR, ER, KR, ACP, TE); also called truncated modifying region; truncated hFASN modifying region; source: HEK293F, transfected (pcDNA3.1, gene synthesized by GenScript), purified (Ni-NTA, Superdex 200)
stoichiometry N: 2
